Assay results from doi:10.1101/2021.02.03.429574 (bioRxiv, 2021).

How the values were obtained:
[1] = biological target: photosystem I of Chlamydomonas reinhardtii, wild type (Chlamydomonas reinhardtii, UniProt P12154 1-751; P09144 1-735; P12356 63-227); assay: flash-induced absorbance transients at 817 nm
[2] = biological target: PsaA (Pisum sativum photosystem I) (Pisum sativum (pea), UniProt P05310 16-758); assay: cryo-EM structure
[3] = biological target: PsaB (Pisum sativum photosystem I) (Pisum sativum (pea), UniProt P05311 13-734); assay: cryo-EM structure
PsaB (Pisum sativum photosystem I), sequence (P05311 13-734): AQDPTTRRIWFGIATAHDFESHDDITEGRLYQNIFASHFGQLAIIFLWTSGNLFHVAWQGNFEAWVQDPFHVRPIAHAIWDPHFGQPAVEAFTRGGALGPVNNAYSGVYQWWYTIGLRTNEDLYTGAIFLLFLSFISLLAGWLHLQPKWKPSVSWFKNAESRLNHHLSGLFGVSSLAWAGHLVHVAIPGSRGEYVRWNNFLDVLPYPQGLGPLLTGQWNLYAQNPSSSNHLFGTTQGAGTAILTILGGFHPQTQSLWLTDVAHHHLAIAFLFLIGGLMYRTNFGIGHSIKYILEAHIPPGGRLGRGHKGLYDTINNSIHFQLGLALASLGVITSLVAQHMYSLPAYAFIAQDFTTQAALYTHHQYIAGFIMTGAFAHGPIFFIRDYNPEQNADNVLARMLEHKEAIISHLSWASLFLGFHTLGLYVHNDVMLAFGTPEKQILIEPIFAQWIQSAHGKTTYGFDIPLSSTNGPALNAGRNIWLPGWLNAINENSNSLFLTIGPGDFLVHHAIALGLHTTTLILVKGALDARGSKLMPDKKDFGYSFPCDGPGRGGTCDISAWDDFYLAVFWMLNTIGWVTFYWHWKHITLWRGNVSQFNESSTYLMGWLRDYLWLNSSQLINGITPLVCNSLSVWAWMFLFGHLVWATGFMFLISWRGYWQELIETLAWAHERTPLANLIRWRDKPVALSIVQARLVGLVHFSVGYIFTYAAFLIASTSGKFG

PsaA (Pisum sativum photosystem I), sequence (P05310 16-758): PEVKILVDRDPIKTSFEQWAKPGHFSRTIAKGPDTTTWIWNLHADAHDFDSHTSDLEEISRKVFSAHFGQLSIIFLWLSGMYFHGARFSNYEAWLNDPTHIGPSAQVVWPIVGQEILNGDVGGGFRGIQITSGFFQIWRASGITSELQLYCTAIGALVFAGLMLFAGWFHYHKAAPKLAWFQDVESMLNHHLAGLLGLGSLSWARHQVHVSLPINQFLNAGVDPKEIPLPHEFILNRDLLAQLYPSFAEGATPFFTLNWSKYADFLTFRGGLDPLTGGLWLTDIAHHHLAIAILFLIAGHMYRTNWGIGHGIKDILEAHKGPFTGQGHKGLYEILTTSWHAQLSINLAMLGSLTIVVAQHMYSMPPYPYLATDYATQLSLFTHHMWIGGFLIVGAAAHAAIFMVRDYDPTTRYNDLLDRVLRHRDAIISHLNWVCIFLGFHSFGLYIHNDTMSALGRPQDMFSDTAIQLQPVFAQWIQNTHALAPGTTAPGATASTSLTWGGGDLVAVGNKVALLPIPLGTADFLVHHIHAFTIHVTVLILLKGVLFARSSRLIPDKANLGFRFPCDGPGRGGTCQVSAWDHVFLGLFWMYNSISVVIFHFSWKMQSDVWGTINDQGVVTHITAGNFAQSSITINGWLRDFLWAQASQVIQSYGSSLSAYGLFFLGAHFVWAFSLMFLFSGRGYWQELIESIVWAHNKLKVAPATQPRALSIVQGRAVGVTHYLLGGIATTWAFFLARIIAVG

B1: plastocyanin used with Chlamydomonas reinhardtii PSI (natural protein, UniProt P18068 48-145, looked up)
chain: DATVKLGADSGALEFVPKTLTIKSGETVNFVNNAGFPHNIVFDEDAIPSGVNADAISRDDYLNAPGETYSVKLTAAGEYGYYCEPHQGAGMVGKIIVQ
B1 was tested, and the Kd [1] was 88 µM.

B2: plastocyanin (Pisum sativum), reduced (natural protein, Pisum sativum (pea), UniProt P16002 70-168, looked up)
chain: VEVLLGASDGGLAFVPSSLEVSAGETIVFKNNAGFPHNVVFDEDEIPAGVDASKISMPEEDLLNAPGETYSVKLDAKGTYKFYCSPHQGAGMVGQVTVN
B2: binds [2]; binds [3].
